As a reminder, the Kd is the concentration at which binding is half-saturated.

Holding throughout (test): ITC
In assay [1] the target is Rel from Chlorobaculum tepidum, full-length (Chlorobaculum tepidum (TLS entry; …, UniProt Q8KC80).
In assay [2] the target is Escherichia coli RelA, full-length (Escherichia coli (K-12 entry; strain …, UniProt P0AG20).
For assay [3], the target named is RelCt^R215E (Chlorobaculum tepidum).

Chain of Escherichia coli RelA, full-length (Escherichia coli (P0AG20 whole entry): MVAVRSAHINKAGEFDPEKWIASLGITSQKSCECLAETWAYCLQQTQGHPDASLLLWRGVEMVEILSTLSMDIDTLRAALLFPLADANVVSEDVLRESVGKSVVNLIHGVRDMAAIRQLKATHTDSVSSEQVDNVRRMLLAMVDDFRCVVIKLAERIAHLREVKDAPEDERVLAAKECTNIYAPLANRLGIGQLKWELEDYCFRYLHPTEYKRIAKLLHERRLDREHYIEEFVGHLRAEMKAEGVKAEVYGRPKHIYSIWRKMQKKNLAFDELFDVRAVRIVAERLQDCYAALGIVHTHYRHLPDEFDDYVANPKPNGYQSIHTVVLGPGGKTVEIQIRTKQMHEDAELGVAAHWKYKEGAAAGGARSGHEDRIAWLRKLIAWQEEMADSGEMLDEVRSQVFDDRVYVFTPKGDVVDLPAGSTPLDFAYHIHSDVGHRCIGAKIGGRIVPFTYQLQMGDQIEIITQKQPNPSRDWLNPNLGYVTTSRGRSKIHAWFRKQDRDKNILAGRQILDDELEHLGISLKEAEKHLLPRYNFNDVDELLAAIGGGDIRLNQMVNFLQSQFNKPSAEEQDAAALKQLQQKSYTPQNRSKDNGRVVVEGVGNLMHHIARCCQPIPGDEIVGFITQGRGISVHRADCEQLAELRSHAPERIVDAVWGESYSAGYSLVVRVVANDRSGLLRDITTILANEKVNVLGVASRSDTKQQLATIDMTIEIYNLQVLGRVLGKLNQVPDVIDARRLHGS

B1: Nb898 (VHH)
VHH: QVQLQESGGGLVQAGGSLRLSCAASGSIESINAMAWYRQAPGKPRELVAVIAKSDGSTTYAVPVKGRFTISRDDAKNTVYLQMNSLKPEDTAIYYCNKIPNFTYWGQGTQVTVSS
In assay [1], B1 displayed a dissociation constant Kd of 186 nM.

B2: Nb94 (VHH)
VHH: QVQLVESGGGMVQPGGSLRLSCAASGFTFSTYSMGWFRQAPGQEREFVAAISWSGDSAYYADSVKGRFTISRDNAKNTVYLQMNSLKFEDTAVYYCNADLDGLGYDYWGQGTQVTVS
Take B2: the Kd in assay [2] worked out at 13 nM.

B3: Nb120 (VHH)
VHH: QVQLVESGGGLVQPGGSLRLSCAASGTIRSLNAMAWYRQAPGKERELAARISSGGTTTYADSVKGRFTISRDNAKNTLYLQMNSLKPEDTAVYYCKANRFSTYGYRDDIWGQGTQVTVS
B3: in assay [2], the binding result is “no binding”.

B4: Nb585 (VHH)
VHH: QVQLQESGGGLVQAGGSLRLSCAASGFTFEDYTIGWFRQAPGKEREGVSLISNSDGFTSYADSVKGQFTISSENAKNTVYLQMDNLKPEDTAVYYCAATEVLAHLMWRPSNWGYWGQGTQVTV
In turn, B4 displayed a Kd in assay [1] of 21 nM. This molecule also yielded a fold drop in affinity against RelCt in assay [3] of 28 fold.

B5: Nb96 (VHH)
VHH: QVQLQESGGGLVQAGGSLRLSCAASGSIFDIKVMAWYRQAPGKSRELVAVHASADDSTTYEKSVKGRFTISRDNAKNTVYLQMNSLKPEDTAIYYCNRIPNFTHWGQGTQVTVS
In assay [2], B5 gave a Kd of 157 nM.

The values above are taken from doi:10.1101/2025.08.07.669093 (bioRxiv, 2025).
